This test has as its target T1, human APOBEC3G (human, UniProt Q9HC16 1-384).
T1 construct: also called A3G; hA3G; not shown: Strep-tag, C-terminal, kept
In words: cryo-EM structure; single-particle cryo-EM of the co-expressed, co-purified complex (SEC peak fraction, 1.9 μM; 30 mM HEPES, 150 mM NaCl, 5% glycerol, 1 mM TCEP); co-purified insect-cell ssRNA between A3G and Vif; monomer map 2.7 Å, dimer states 1, 1' and 2. Particulars: both partners purified.

T1 sequence (Q9HC16 whole entry): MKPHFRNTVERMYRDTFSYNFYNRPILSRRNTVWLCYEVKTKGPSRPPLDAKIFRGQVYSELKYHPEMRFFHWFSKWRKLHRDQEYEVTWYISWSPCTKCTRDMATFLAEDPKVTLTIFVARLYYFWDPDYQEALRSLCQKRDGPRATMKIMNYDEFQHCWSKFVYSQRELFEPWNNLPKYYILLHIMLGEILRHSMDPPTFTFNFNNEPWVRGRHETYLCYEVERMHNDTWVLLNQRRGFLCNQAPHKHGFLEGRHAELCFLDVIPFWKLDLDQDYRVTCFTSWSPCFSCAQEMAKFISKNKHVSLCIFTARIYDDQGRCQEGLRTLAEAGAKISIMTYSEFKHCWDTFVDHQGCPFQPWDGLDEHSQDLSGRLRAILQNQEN

B1: HIV-1 HXB2 Vif (natural protein)
chain: not shown
notes: also called Vif_(HXB2)
Consider B1, for which the binding result was “binds”.

For the origin of these results see paper PMC10033410 (Nature, 2023).
